Measurements published in article PMC11616004, “Metabolite phosphatase from anhydrobiotic tardigrades” (The Febs Journal, 2024).

Tests used:
DRB0118 = target: T1, DRB0118 (Deinococcus radiodurans, UniProt Q9RZK8); assay: malachite green phosphate release; assay type: biochemical; settings: 1 mM substrate, 20 mM Tris-HCl pH 8.0, 37 °C, 1 h; MBP fusion
T1 construct: gene DR_B0118; residues 58-337, signal peptide removed; N-terminal MBP fusion kept, 6xHis cut by TEV; codon-optimized, E. coli BL21(DE3); mainly dimer in solution
T1 sequence (Q9RZK8 58-337): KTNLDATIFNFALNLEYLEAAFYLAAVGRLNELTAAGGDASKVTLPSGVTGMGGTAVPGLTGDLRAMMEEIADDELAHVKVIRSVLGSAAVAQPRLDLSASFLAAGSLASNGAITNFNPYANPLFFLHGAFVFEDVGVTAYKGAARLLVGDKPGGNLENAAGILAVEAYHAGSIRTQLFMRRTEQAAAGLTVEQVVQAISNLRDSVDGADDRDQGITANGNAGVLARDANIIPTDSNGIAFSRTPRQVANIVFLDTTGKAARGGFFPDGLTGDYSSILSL

[1] = target: the molecule itself; assay: crystal structure; sitting-drop vapor diffusion at 20 °C, RvFeMP‐1 at 10 mg/mL; conditions A (MES pH 6.0, PEG 20000), B (MgCl2, Tris–HCl pH 8.2, PEG 4000) and C (sodium thiocyanate, sodium acetate pH 4.0, PEG4000); dimer of two protomers
[2] = target: the molecule itself; assay: native gel or EMSA; high‐resolution clear native PAGE of the purified sample (EzApply Native, EzStandard Native, EzRun ClearNative, ATTO)

Molecule: O=[N+]([O-])c1ccc(OP(=O)(O)O)cc1 [pNPP, p-nitrophenyl phosphate]
- activity (nmol/min/mg) (DRB0118): can also function as a phosphatase and the activity toward pNPP was higher

B1: RvFeMP‐1 (Ramazzottius varieornatus Ferritin‐like metabolite phosphatase 1), residues 21–316 (enzyme)
chain: GGNRGMSRNQDAYAEKMDMTLDALNFLLGVEHLASAFYVQAVNNFTADDFKAAGLAQRDYDQFVGVRNNEVDHRDTLISVIKSLGGKPNPPCKYTFPVTDVASVLKVSRTLENADKPAYLGALRDIKSVELRTSVQGALSGDSAHAAFFAYLTGKAPAPGPVDGPLTQRHIATLAQDFIVSCPYPAPKPFPKLTLSPQSGPVGTVVATTCAQDVDTNGVMCAIISGNQGTLMQRPGQAKDGSGAATCTIPPGVKGILFIAWVRGRDVLNVGVDDSSTVCGPNYFLLSALGDAVPGV
notes: RvFeMP‐1 (RvY_06210 product) of Ramazzottius varieornatus strain YOKOZUNA‐1, residues 21–316, without the predicted 20-residue secretory signal peptide; After TEV cleavage one G of the recognition site probably stays at the N-terminus (surmised); also called RvY_06210 product; Tar‐fer; source: E. coli Shuffle T7, purified (HiTrap TALON, TEV protease, HisTrap flowthrough, Superdex 200 SEC); not …
- binding result [1]: binds

B2: MBP‐DRB0118 (DRB0118 residues 58–337 fused to maltose‐binding protein) (enzyme, Deinococcus radiodurans R1)
chain: T1 sequence (Q9RZK8 58-337)
notes: DRB0118 of Deinococcus radiodurans R1, residues 58–337, without the signal peptide region; codon-optimised synthetic DNA; The MBP carrier (amplified from pMAL‐c5X) stands N-terminal of DRB0118 and was kept; After TEV cleavage one G of the site probably stays before MBP (surmised); source: E. coli BL21(DE3), purified (HiTrap TALON, TEV protease, HisTrap flowthrough, Superdex 200 SEC); not shown: …
- stoichiometry N [2]: 2
